According to paper PMC12477886:

Tests used:
Experiment in all cases: BLI
[1] = biological target: M15 single reverted mutant S32I (light chain I32 reverted to germline S) (human)
[2] = biological target: M15 triple mutant (light chain S32I, G51A and T57I all reverted to germline) (human)
[3] = biological target: M15 single reverted mutant G51A (light chain A51 reverted to germline G) (human)
[4] = biological target: M15 single reverted mutant T57I (light chain I57 reverted to germline T) (human)

## SARS-CoV-2 WA1/2020 S2 protein (stabilized prefusion spike S2 trimer) (from UniProt P0DTC2) (domain or fragment)
[1]
  fold decrease in binding affinity compared with M15: 1.45 fold
[2]
  fold decrease in binding affinity compared with M15: 12 fold
[3]
  fold decrease in binding affinity compared with M15: 1.88 fold
[4]
  fold decrease in binding affinity compared with M15: 1.02 fold
